Assay [1] has as its target T1, human TF on cells (MDA-MB-231, BxPC-3 and other tumor cells with high TF expression) (human, UniProt P13726 33-295).
T1 construct: whole, on cells; Endogenous expression on tumor cell lines; also called cell surface TF
Put plainly: flow cytometry on MDA-MB-231 cells, antibody at 1 µg/mL. On the technique in general: Flow cytometry measures light scatter and fluorescence of single cells or particles in a stream.

The target of assay [2] is T1, human TF on cells (MDA-MB-231, BxPC-3 …). The experiment in a line: flow cytometry on MDA-MB-231 cells, antibody at 10 µg/mL.

B1: TF-mAb-H30 (antibody, V domains shown)
VH: EVQLVQSGAEVKKPGESLKISCKGSGYSFTSYWMNWVRQMPGKGLEWMGMIYPADSETRLNQKFKDKATLSVDKSISTAYLQWSSLKASDTAMYYCAREDYGSSDYWGQGTTVTVSS
VL: EIVLTQSPATLSLSPGERATLSCSASSSVSYMNWYQQKPGQAPRIWIYGISNLASGIPARFSGSGSGTDFTLTISSLEPEDFAVYYCQQKSSFPWTFGGGTKVEIK
For the molecule B1, the figures for the MFI in assay [1] and in assay [2] were 2930 MFI and 3240 MFI, respectively.

B2: TF-mAb-H38 (antibody, V domains shown)
VH: QVQLVQSGSELKKPGASVKVSCKASGYSFISYWMNWVRQAPGQGLEWIGMIYPADSETRLNQKFKDRAVLSVDKSVSTAYLQICSLKAEDTAVYYCAREDYGSSDYWGQGTTVTVSS
VL: EIVLTQSPATLSLSPGERATLSCSASSSVSYMNWYQQKPGQSPRIWIYGISNLASGVPARFSGSGSGTDFTLTISSLEPEDFAVYYCQQKSSFPWTFGGGTKVEIK
Regarding B2, the MFI in assay [1] is 2870 MFI; in assay [2] it was 3150 MFI.

B3: TF-mAb-H45 (antibody, V domains shown)
VH: EVQLVQSGAEVKKPGESLKISCKGSGYSFTSYWMNWVRQMPGKGLEWMGMIYPADSETRLNQKFKDKATLSVDKSISTAYLQWSSLKASDTAMYYCAREDYGSSDYWGQGTTVTVSS
VL: EIVLTQSPDFQSVTPKEKVTITCSASSSVSYMNWYQQKPDQSPKIWIYGISNLASGVPSRFSGSGSGTDFTLTINSLEAEDAATYYCQQKSSFPWTFGGGTKVEIK
As for B3, the MFI in assay [1] stood at 3100 MFI; in assay [2], 3480 MFI.

B4: TF-mAb-H32 (antibody, V domains shown)
VH: QVQLVQSGAEVKKPGASVKVSCKASGYSFISYWMNWVRQAPGQGLEWIGMIYPADSETRLNQKFKDRATLTVDKSTSTAYMELSSLRSEDTAVYYCAREDYGSSDYWGQGTTVTVSS
VL: EIVLTQSPATLSLSPGERATLSCSASSSVSYMNWYQQKPGQAPRIWIYGISNLASGIPARFSGSGSGTDFTLTISSLEPEDFAVYYCQQKSSFPWTFGGGTKVEIK
On to B4, for which the results for the MFI in assay [1] and in assay [2] were 2400 MFI and 3010 MFI, respectively.

B5: TF-mAb-H40 (antibody, V domains shown)
VH: EVQLVQSGAEVKKPGESLKISCKGSGYSFTSYWMNWVRQMPGKGLEWMGMIYPADSETRLNQKFKDKATLSVDKSISTAYLQWSSLKASDTAMYYCAREDYGSSDYWGQGTTVTVSS
VL: DIQLTQSPSSLSASVGDRVTITCSASSSVSYMNWYQQKPGKSPKIWIYGISNLASGVPSRFSGSGSGTDFTLTISSLQPEDFATYYCQQKSSFPWTFGGGTKVEIK
Take B5: the MFI amounted to 3180 MFI in assay [1] and 3310 MFI in assay [2].

B6: TF-mAb-H34 (antibody, V domains shown)
VH: EVQLVQSGAEVKKPGESLKISCKGSGYSFTSYWMNWVRQMPGKGLEWMGMIYPADSETRLNQKFKDQATLSVDKSISTAYLQWSSLKASDTAMYYCAREDYGSSDYWGQGTTVTVSS
VL: EIVLTQSPATLSLSPGERATLSCSASSSVSYMNWYQQKPGQSPRIWIYGISNLASGVPARFSGSGSGTDFTLTISSLEPEDFAVYYCQQKSSFPWTFGGGTKVEIK
On to B6, for which the MFI in assay [1] amounted to 2460 MFI; in assay [2] it was 3270 MFI.

B7: TF-mAb-H36 (antibody, V domains shown)
VH: EVQLVQSGAEVKKPGESLKISCKGSGYSFTSYWMNWVKQMPGKGLEWMGMIYPADSETRLNQKFKDKATLSVDKSISTAYLQWSSLKASDTAMYYCAREDYGSSDYWGQGTTVTVSS
VL: EIVLTQSPATLSLSPGERATLSCSASSSVSYMNWYQQKPGQSPRIWIYGISNLASGVPARFSGSGSGTDFTLTISSLEPEDFAVYYCQQKSSFPWTFGGGTKVEIK
On to B7, for which the figures for the MFI in assay [1] and in assay [2] were 3040 MFI and 3090 MFI, respectively.

B8: TF-mAb-H35 (antibody, V domains shown)
VH: EVQLVQSGAEVKKPGESLKISCKGSGYSFTSYWMNWVRQMPGKGLEWMGMIYPADSETRLNQKFKDKATLSVDKSISTAYLQWSSLKASDTAMYYCAREDYGSSDYWGQGTTVTVSS
VL: EIVLTQSPATLSLSPGERATLSCSASSSVSYMNWYQQKPGQSPRIWIYGISNLASGVPARFSGSGSGTDFTLTISSLEPEDFAVYYCQQKSSFPWTFGGGTKVEIK
On to B8, for which the MFI in assay [1] is 2930 MFI; in assay [2], 3020 MFI.

B9: TF-mAb-H33 (antibody, V domains shown)
VH: QVQLVQSGSELKKPGASVKVSCKASGYSFISYWMNWVRQAPGQGLEWIGMIYPADSETRLNQKFKDRAVLSVDKSVSTAYLQICSLKAEDTAVYYCAREDYGSSDYWGQGTTVTVSS
VL: EIVLTQSPATLSLSPGERATLSCSASSSVSYMNWYQQKPGQAPRIWIYGISNLASGIPARFSGSGSGTDFTLTISSLEPEDFAVYYCQQKSSFPWTFGGGTKVEIK
Regarding B9, the MFI in assay [1] was 2420 MFI; in assay [2], 2840 MFI.

B10: TF-mAb-H29 (antibody, V domains shown)
VH: EVQLVQSGAEVKKPGESLKISCKGSGYSFTSYWMNWVRQMPGKGLEWMGMIYPADSETRLNQKFKDQATLSVDKSISTAYLQWSSLKASDTAMYYCAREDYGSSDYWGQGTTVTVSS
VL: EIVLTQSPATLSLSPGERATLSCSASSSVSYMNWYQQKPGQAPRIWIYGISNLASGIPARFSGSGSGTDFTLTISSLEPEDFAVYYCQQKSSFPWTFGGGTKVEIK
For B10, the MFI in assay [1] was 2960 MFI; in assay [2], 3580 MFI.

B11: TF-mAb-H44 (antibody, V domains shown)
VH: EVQLVQSGAEVKKPGESLKISCKGSGYSFTSYWMNWVRQMPGKGLEWMGMIYPADSETRLNQKFKDQATLSVDKSISTAYLQWSSLKASDTAMYYCAREDYGSSDYWGQGTTVTVSS
VL: EIVLTQSPDFQSVTPKEKVTITCSASSSVSYMNWYQQKPDQSPKIWIYGISNLASGVPSRFSGSGSGTDFTLTINSLEAEDAATYYCQQKSSFPWTFGGGTKVEIK
On to B11, for which the MFI turned out to be 3200 MFI in assay [1] and 3430 MFI in assay [2].

B12: TF-mAb-H31 (antibody, V domains shown)
VH: EVQLVQSGAEVKKPGESLKISCKGSGYSFTSYWMNWVKQMPGKGLEWMGMIYPADSETRLNQKFKDKATLSVDKSISTAYLQWSSLKASDTAMYYCAREDYGSSDYWGQGTTVTVSS
VL: EIVLTQSPATLSLSPGERATLSCSASSSVSYMNWYQQKPGQAPRIWIYGISNLASGIPARFSGSGSGTDFTLTISSLEPEDFAVYYCQQKSSFPWTFGGGTKVEIK
Consider B12, for which the values for the MFI in assay [1] and in assay [2] were 3080 MFI and 3470 MFI, respectively.

B13: TF-mAb-H46 (antibody, V domains shown)
VH: EVQLVQSGAEVKKPGESLKISCKGSGYSFTSYWMNWVKQMPGKGLEWMGMIYPADSETRLNQKFKDKATLSVDKSISTAYLQWSSLKASDTAMYYCAREDYGSSDYWGQGTTVTVSS
VL: EIVLTQSPDFQSVTPKEKVTITCSASSSVSYMNWYQQKPDQSPKIWIYGISNLASGVPSRFSGSGSGTDFTLTINSLEAEDAATYYCQQKSSFPWTFGGGTKVEIK
With B13, the MFI came out at 3120 MFI in assay [1] and 3410 MFI in assay [2].

B14: TF-mAb-H41 (antibody, V domains shown)
VH: EVQLVQSGAEVKKPGESLKISCKGSGYSFTSYWMNWVKQMPGKGLEWMGMIYPADSETRLNQKFKDKATLSVDKSISTAYLQWSSLKASDTAMYYCAREDYGSSDYWGQGTTVTVSS
VL: DIQLTQSPSSLSASVGDRVTITCSASSSVSYMNWYQQKPGKSPKIWIYGISNLASGVPSRFSGSGSGTDFTLTISSLQPEDFATYYCQQKSSFPWTFGGGTKVEIK
Regarding B14, the MFI in assay [1] stood at 3000 MFI; in assay [2], 3610 MFI.

B15: TF-mAb-H39 (antibody, V domains shown)
VH: EVQLVQSGAEVKKPGESLKISCKGSGYSFTSYWMNWVRQMPGKGLEWMGMIYPADSETRLNQKFKDQATLSVDKSISTAYLQWSSLKASDTAMYYCAREDYGSSDYWGQGTTVTVSS
VL: DIQLTQSPSSLSASVGDRVTITCSASSSVSYMNWYQQKPGKSPKIWIYGISNLASGVPSRFSGSGSGTDFTLTISSLQPEDFATYYCQQKSSFPWTFGGGTKVEIK
For B15, the MFI in assay [1] came out at 3180 MFI; in assay [2] it was 3380 MFI.

B16: TF-mAb-H37 (antibody, V domains shown)
VH: QVQLVQSGAEVKKPGASVKVSCKASGYSFISYWMNWVRQAPGQGLEWIGMIYPADSETRLNQKFKDRATLTVDKSTSTAYMELSSLRSEDTAVYYCAREDYGSSDYWGQGTTVTVSS
VL: EIVLTQSPATLSLSPGERATLSCSASSSVSYMNWYQQKPGQSPRIWIYGISNLASGVPARFSGSGSGTDFTLTISSLEPEDFAVYYCQQKSSFPWTFGGGTKVEIK
On to B16, for which the results for the MFI in assay [1] and in assay [2] were 2460 MFI and 2990 MFI, respectively.

B17: TF-mAb-Ch (antibody, V domains shown)
VH: QVQLQQPGAELVRPGASVKLSCKASGYSFISYWMNWVKQRPGQGLEWIGMIYPADSETRLNQKFKDKATLTVDKSSSTAYMQLSSPTSEDSAVYYCAREDYGSSDYWGQGTTLTVSS
VL: EILLTQSPAIIAASPGEKVTITCSASSSVSYMNWYLQKPGSSPKIWIYGISNLASGVPARFSGSGSGTSFSFTINSMETEDVATYYCQQKSSFPWTFGGGTKLEIK
notes: Variable regions of TF-mAb-SC1 cloned onto human IgG1 heavy chain constant region and human kappa constant region; also called human-mouse chimeric antibody
Turning to B17, the MFI in assay [1] was found to be 3370 MFI; in assay [2] it was 3540 MFI.

B18: TF-mAb-H42 (antibody, V domains shown)
VH: QVQLVQSGAEVKKPGASVKVSCKASGYSFISYWMNWVRQAPGQGLEWIGMIYPADSETRLNQKFKDRATLTVDKSTSTAYMELSSLRSEDTAVYYCAREDYGSSDYWGQGTTVTVSS
VL: DIQLTQSPSSLSASVGDRVTITCSASSSVSYMNWYQQKPGKSPKIWIYGISNLASGVPSRFSGSGSGTDFTLTISSLQPEDFATYYCQQKSSFPWTFGGGTKVEIK
For B18, the MFI in assay [1] worked out at 2970 MFI; in assay [2], 3350 MFI.

B19: TF-mAb-H43 (antibody, V domains shown)
VH: QVQLVQSGSELKKPGASVKVSCKASGYSFISYWMNWVRQAPGQGLEWIGMIYPADSETRLNQKFKDRAVLSVDKSVSTAYLQICSLKAEDTAVYYCAREDYGSSDYWGQGTTVTVSS
VL: DIQLTQSPSSLSASVGDRVTITCSASSSVSYMNWYQQKPGKSPKIWIYGISNLASGVPSRFSGSGSGTDFTLTISSLQPEDFATYYCQQKSSFPWTFGGGTKVEIK
B19: the MFI in assay [1] came out at 2820 MFI; in assay [2], 3300 MFI.

The record behind these values is patent US20230138930A1 (FUDAN UNIVERSITY, published 2023).
